# Where two headings read alike, the source gives them in different places.
# T1: membrane associated human B7.1 on cells (human, UniProt P33681 35-288)
# T1 sequence (looked up): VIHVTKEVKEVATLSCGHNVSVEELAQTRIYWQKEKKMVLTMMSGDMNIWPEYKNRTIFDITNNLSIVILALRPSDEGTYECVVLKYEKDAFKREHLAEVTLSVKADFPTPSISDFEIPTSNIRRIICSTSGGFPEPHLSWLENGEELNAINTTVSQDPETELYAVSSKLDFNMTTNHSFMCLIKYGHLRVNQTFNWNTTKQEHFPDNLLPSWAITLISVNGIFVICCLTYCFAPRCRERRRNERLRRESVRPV
# T2: B7.1/Ig fusion protein (human, UniProt P33681 35-242, 125I radiolabel where used as tracer)
# T2 construct: Secreted from CHO cells; also called B7-Ig; not shown: human immunoglobulin CH2 and CH3 domains of the NEOSPLA cassette vector; isotype
# T2 sequence (looked up): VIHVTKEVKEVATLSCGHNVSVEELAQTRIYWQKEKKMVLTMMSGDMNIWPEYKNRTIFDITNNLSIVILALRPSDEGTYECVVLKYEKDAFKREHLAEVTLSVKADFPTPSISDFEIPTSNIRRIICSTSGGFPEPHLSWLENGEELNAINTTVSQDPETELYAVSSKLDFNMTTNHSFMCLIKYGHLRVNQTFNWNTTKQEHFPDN
# Experiments:
# [1] = biological target: T1, membrane associated human B7.1 on cells; assay: cell-based or functional assay
# B7.1/Ig fusion protein [2] = biological target: T2, B7.1/Ig fusion protein; assay: Scatchard analysis, binding to B7-Ig coated plates
# B7.1/Ig fusion protein [3] = biological target: T2, B7.1/Ig fusion protein; assay: Scatchard analysis, binding to B7-Ig coated plates; remark: listed apart in the source
inhibit IL-2 production in mixed lymphocyte reaction [1],Kd (B7.1/Ig fusion protein [2]),Kd (B7.1/Ig fusion protein [3]),Binder
5 µg/mL,~10.7 nM,~10.7 nM,"monkey monoclonal anti-B7.1 antibody 7B6 (antibody, V domains shown, Tested as the original cynomolgus monkey Ig from a heterohybridoma) VH: EVQLVESGGGLVQPGGSLRVSCAVSGFTFSDHYMYWFRQAPGKGPEWVGFIRNKPNGGTTEYAASVKDRFTISRDDSKSIAYLQMSSLKIEDTAVYYCTTSYISHCRGGVCYGGYFEFWGQGALVTVSS VL: EVVMTQSPLSLPITPGEPASISCRSSQSLKHSNGDTFLSWYQQKPGQPPRLLIYKVSNRDSGVPDRFSGSGAGTDFTLKISAVEAEDVGVYFCGQGTRTPPTFGGGTKVEIK"
0.1 µg/mL,~8.1 nM,~8.1 nM,"monkey monoclonal anti-B7.1 antibody 16C10 (antibody, V domains shown, Tested as the original cynomolgus monkey Ig from a heterohybridoma) VH: QVQLQESGPGLVKPSETLSLTCAVSGGSISGGYGWGWIRQPPGKGLEWIGSFYSSSGNTYYNPSLKSQVTISTDTSKNQFSLKLNSMTAADTAVYYCVRDRLFSVVGMVYNNWFDVWGPGVLVTVSS VL: ESVLTQPPSVSGAPGQKVTISCTGSTSNIGGYDLHWYQQLPGTAPKLLIYDINKRPSGISDRFSGSKSGTAASLAITGLQTEDEADYYCQSYDSSLNAQVFGGGTRLTVL"
5 µg/mL,~6.2 nM,~6.2 nM,"monkey monoclonal anti-B7.1 antibody 7C10 (antibody, V domains shown, Tested as the original cynomolgus monkey Ig from a heterohybridoma; A leader may be included in the entries; also called 7C10 monkey Ig) VH: QVKLQQWGEGLLQPSETLSRTCVVSGGSISGYYYWTWIRQTPGRGLEWIGHIYGNGATTNYNPSLKSRVTISKDTSKNQFFLNLNSVTDADTAVYYCARGPRPDCTTICYGGWVDVWGPGDLVTVSS VL: AYELTQPPSVSVSPGQTARITCGGDNSRNEYVHWYQQKPARAPILVIYDDSDRPSGIPERFSGSKSGNTATLTINGVEAGDEADYYCQVWDRASDHPVFGGGTRVTVL"
